# Target: anti-CD3 idiotype ScFv (CAR6) fused to the 28z-CAR-membrane-bound IL-15 construct, on cord blood-derived NK cells
# Assay: cell-based or functional assay
substance,measurement,value
REGN1979 (bispecific antibody),"Max Activity, CCL5 release (pg/ml), CBNK/CAR6 cells + Ramos/HiBiT",6.9 pg/mL
same,"Max Activity, Cytotoxicity (%), CBNK/CAR6 cells + Ramos/HiBiT",25.5%
same,"Max Activity, FasL release (pg/ml), CBNK/CAR6 cells + Ramos/HiBiT",16.4 pg/mL
same,"Max Activity, Granzyme A release (pg/ml), CBNK/CAR6 cells + Ramos/HiBiT",643 pg/mL
same,"Max Activity, Granzyme B release (pg/ml), CBNK/CAR6 cells + Ramos/HiBiT",239 pg/mL
same,"Max Activity, IFNγ release (pg/ml), CBNK/CAR6 cells + Ramos/HiBiT",45.6 pg/mL
same,"Max Activity, TNFα release (pg/ml), CBNK/CAR6 cells + Ramos/HiBiT",11.9 pg/mL

# — patent US20240277844A1
